Reference: the Human Domainome abundance scans (Beltran et al. 2025)

B1: Ras GTPase-activating protein 1, residues 281 to 341; numbered along this chain, P20936 (parent)
chain: RRRVRAILPYTKVPDTDEISFLKGDMFIVHNELEDGWMWVTNLRTDEQGLIVEDLVEEVGR

Variants of: B1
Assay: abundance fitness (aPCA) (normalised: wild type 0, dead -1); higher = more abundant; growth selection in yeast, the domain comes from the species named
Settings: Homo sapiens

Abundance fitness of substitutions, site by site:
D46: T -0.029, S -0.011, L -0.08, V -0.044, N 0.004, H 0.009, M -0.014, C -0.002, Y -0.098, Q -0.11, A 0.05, F -0.065, R 0.019, P -0.864, E 0.066, I -0.085, K 0.085, G 0.038, W 0.029
T45: E -0.997, Y -0.841, Q -0.962, W -0.876, P -0.988, H -0.769, S -0.098, M -0.974, D -0.762, N -0.005, V -0.807, L -0.836, A -0.735, K -1.05, F -0.796, C -0.771, G -0.851
G49: F -0.754, Q -1.01, H -0.825, I -0.874, A -0.926, N -0.836, D -0.836, L -0.847, C -0.784, T -0.791, P -0.846, Y -0.936, R -1.04, W -1.09, S -0.979, V -0.949, E -0.766
E57: R -0.197, D -0.251, C -0.168, I -0.223, T -0.117, A -0.232, F -0.527, V -0.107, S -0.252, K -0.471, M -0.346, Q -0.083, N -0.447, Y -0.357, W -0.921, G -0.536, L -0.368, H -0.224, P -0.848
M38: Y -0.188
I51: Y -0.834, V 0.023, G -0.761, T -0.784, A -0.481, F -0.826, Q -1.07, K -1.09, D -0.814, H -0.857, W -0.826, E -0.899, L -0.157, P -0.912, C -0.401, R -0.786
E58: G -0.156, C -0.146, D -0.026, F -0.285, A -0.134, H -0.156
Q48: M -0.107, W -0.32, K 0.015, D -0.038, R -0.051, F -0.122, S -0.022, H -0.048, T 0.019, I -0.084, Y -0.08, P -0.503, E -0.06, A -0.073, C -0.043, G -0.375
W39: C -0.187, K -0.118, I -0.284, R -0.03, V -0.195, E 0.003, M -0.094, F -0.034, P -0.796, Q -0.079, D -0.226, N -0.134, H -0.204, T -0.26, L -0.063, G -0.67, Y -0.009
E47: Q -0.135, L -0.417, P -0.993, H -0.253, A -0.254, N -0.428, Y -0.77, V -0.375, F -0.841, K -0.23, C -0.192, W -0.94, T -0.263, M -0.257, G -0.684, S -0.348, D -0.104
V40: H -0.858, P -0.77, C -0.102, E -1.13, A 0.002, L -0.935, K -0.682, W -0.917, D -0.846, Q -1.01, R -0.836, T -0.672, N -0.987, I -0.829, S -0.826, F -0.881, G -0.547
L55: K 0.027, M 0.005, E -0.765, I -0.241, P -0.925, G -0.348, H 0.059, D -0.394, Y 0.034, V -0.175, R -0.034, Q -0.033, F 0.015, A 0.032, N -0.02, S -0.018, W -0.165
D54: Q 0, P -0.175, C -0.042, T 0.016, Y -0.183, S 0.058, H -0.225, K 0.037, R 0.133, V -0.233, L -0.281, E -0.069, W -0.184, N 0.013, I -0.338, F -0.262
L43: A -0.229, C 0.007, I -0.012, T -0.038, R -0.437, W -0.748, Y -0.35, S -0.19, P -0.784, V -0.044, E -0.026, M 0.005, H -0.612, F -0.425, D -0.422, N -0.388, G -0.694, K -0.206
T41: P -0.973, A -0.633, S -0.19, I -0.594, C -0.425, N -0.576, F -0.88, W -0.378, M -0.362, D -0.862, R -0.102, Y -0.312, G -0.941, K -0.143, H -0.078, L -0.357, V -0.289
V52: R 0.043, G 0.059, M 0.031, C 0.024, I 0.022, A 0.072, F 0.009, Q 0.045, W -0.047, H 0.029, S 0.013, L 0.041, T 0.023, P 0.04, E -0.123, K 0, D -0.121, N 0.015
R44: M -0.287, E -0.442, T -0.319, D -0.885, C -0.47, N -0.224, H -0.542, S -0.207, Q -0.314, P -0.9, F -0.637, K -0.648, V -0.708, Y -0.523, I -0.774, L -0.905
L50: D -0.958, M 0.004, S -0.07, H -0.426, G -0.613, Y -0.05, T -0.04, P -0.504, N -0.828, K 0.131, V -0.043, R 0.142, F -0.126, I -0.03, W -0.07, A -0.002, E -0.395
V56: T -0.013, Y -0.982, G -0.85, W -0.844, F -0.953, R -0.846, L -0.711, K -0.741, E -1.07, D -0.887, P -0.778, M -0.23, S -0.73, I -0.031, A -0.421, N -0.874, C -0.126, H -0.93
N42: E -0.698, L -0.296, G -0.802, C -0.1, Y -0.969, W -0.929, F -0.782, D -0.585, P -0.874, H -0.381, K -0.61, T -0.875, S -0.235, V -0.963, M -0.577, I -0.893, A -0.436, Q -0.737
E53: A -0.027, I -0.052, H -0.003, F -0.337, C -0.079, V -0.053, S 0.021, P -0.031, K 0.01, D -0.045, Y -0.121, R -0.019, Q -0.034, L -0.236, W -0.203, T 0.041, G 0.03
